Measurements published in US20180030151A1.
Like-named read-outs stand apart in the source and are kept apart here.

Key:
[1] = molecular target: recombinant human TFPI (tissue factor pathway inhibitor) (human) (UniProt P10646)
[2] = molecular target: recombinant human TFPI (tissue factor pathway inhibitor) (human) (UniProt P10646); assay: cell-based or functional assay
[3] = molecular target: recombinant human TFPI (tissue factor pathway inhibitor) (human) (UniProt P10646); remark: listed apart in the source
[4] = molecular target: recombinant human TFPI (tissue factor pathway inhibitor) (human) (UniProt P10646); assay: cell-based or functional assay; remark: listed apart in the source
[5] = molecular target: recombinant human TFPI (tissue factor pathway inhibitor) (human) (UniProt P10646); remark: listed apart in the source
[6] = molecular target: recombinant human TFPI (tissue factor pathway inhibitor) (human) (UniProt P10646); remark: listed apart in the source
[7] = molecular target: recombinant human TFPI (tissue factor pathway inhibitor) (human) (UniProt P10646); remark: listed apart in the source
[8] = molecular target: recombinant human TFPI (tissue factor pathway inhibitor) (human) (UniProt P10646); remark: listed apart in the source
[9] = molecular target: recombinant human TFPI (tissue factor pathway inhibitor) (human) (UniProt P10646); assay: cell-based or functional assay; remark: listed apart in the source
[10] = molecular target: recombinant human TFPI (tissue factor pathway inhibitor) (human) (UniProt P10646); assay: cell-based or functional assay; remark: listed apart in the source

B1: mAb2021 (anti-TFPI Ab, Novo Nordisk) (antibody, from another filing, V domains shown)
VH: EVQLVESGGGLVKPGGSLRLSCAASGFTFSNYAMSWVRQTPEKRLEWVATISRSGSYSYFPDSVQGRFTISRDNAKNSLYLQMNSLRAEDTAVYYCARLGGYDEGDAMDSWGQGTTVTVSS
VL: DIVMTQTPLSLSVTPGQPASISCKSSQSLLESDGKTYLNWYLQKPGQSPQLLIYLVSILDSGVPDRFSGSGSGTDFTLKISRVEAEDVGVYYCLQATHFPQTFGGGTKVEIKR
B1 was tested, and the FXa assay OD, 5 nM Ab, 10 nM TFPI [1] was 0.17, the FXa assay OD, 10 nM Ab, 10 nM TFPI [1] was 0.476 and the FXa assay OD, 20 nM Ab, 10 nM TFPI [1] was 0.415. The A405, TF/FVIIa/FX complex assay, Ab 1.56 nM [2] was 0.044, the A405, TF/FVIIa/FX complex assay, Ab 3.13 nM [2] was 0.046 and the A405, TF/FVIIa/FX complex assay, Ab 6.25 nM [2] was 0.062. The A405, TF/FVIIa/FX complex assay, Ab 12.5 nM [2] was 0.105, the A405, TF/FVIIa/FX complex assay, Ab 25 nM [2] was 0.462 and the A405, TF/FVIIa/FX complex assay, Ab 50 nM [2] was 0.73. It also gave an A405, TF/FVIIa/FX complex assay, Ab 100 nM [2] of 0.852, an FXa assay % of FXa alone, 2.5 nM Ab, 10 nM TFPI [3] of 8.5% and an FXa assay % of FXa alone, 5 nM Ab, 10 nM TFPI [3] of 66.6%. For the same binder, the FXa assay % of FXa alone, 10 nM Ab, 10 nM TFPI [3] was 92.3%, the FXa assay % of FXa alone, 20 nM Ab, 10 nM TFPI [3] was 87.6% and the FXa assay OD, 2.5 nM Ab, 10 nM TFPI [3] was 0.07. The FXa assay OD, 5 nM Ab, 10 nM TFPI [3] was 0.55, the FXa assay OD, 10 nM Ab, 10 nM TFPI [3] was 0.763 and the FXa assay OD, 20 nM Ab, 10 nM TFPI [3] was 0.724. For the same binder, the A405, TF/FVIIa/FX complex assay, Ab 1.56 nM [4] was 0.151, the A405, TF/FVIIa/FX complex assay, Ab 3.13 nM [4] was 0.171 and the A405, TF/FVIIa/FX complex assay, Ab 6.25 nM [4] was 0.18. The A405, TF/FVIIa/FX complex assay, Ab 12.5 nM [4] was 0.233, the A405, TF/FVIIa/FX complex assay, Ab 25 nM [4] was 0.955 and the A405, TF/FVIIa/FX complex assay, Ab 50 nM [4] was 0.951. For the same binder, the A405, TF/FVIIa/FX complex assay, Ab 100 nM [4] was 0.966, the FXa assay % of FXa alone, 2.5 nM Ab, 10 nM TFPI [5] was 5.6% and the FXa assay % of FXa alone, 5 nM Ab, 10 nM TFPI [5] was 10.7%. It also gave an FXa assay % of FXa alone, 10 nM Ab, 10 nM TFPI [5] of 77.7%, an FXa assay % of FXa alone, 20 nM Ab, 10 nM TFPI [5] of 84.5% and an FXa assay OD, 2.5 nM Ab, 10 nM TFPI [5] of 0.0485. It also gave an FXa assay OD, 5 nM Ab, 10 nM TFPI [5] of 0.0935, an FXa assay OD, 10 nM Ab, 10 nM TFPI [5] of 0.676 and an FXa assay OD, 20 nM Ab, 10 nM TFPI [5] of 0.735. The FXa assay % of FXa alone, 2.5 nM Ab, 10 nM TFPI [6] was 12.3%, the FXa assay % of FXa alone, 5 nM Ab, 10 nM TFPI [6] was 90% and the FXa assay % of FXa alone, 10 nM Ab, 10 nM TFPI [6] was 96.5%. The FXa assay % of FXa alone, 20 nM Ab, 10 nM TFPI [6] was 88.8%, the FXa assay OD, 2.5 nM Ab, 10 nM TFPI [6] was 0.0945 and the FXa assay OD, 5 nM Ab, 10 nM TFPI [6] was 0.693. It also gave an FXa assay OD, 10 nM Ab, 10 nM TFPI [6] of 0.743, an FXa assay OD, 20 nM Ab, 10 nM TFPI [6] of 0.683 and an FXa assay % of FXa alone, 2.5 nM Ab, 10 nM TFPI [7] of 9%. The FXa assay % of FXa alone, 5 nM Ab, 10 nM TFPI [7] was 61.3%, the FXa assay % of FXa alone, 10 nM Ab, 10 nM TFPI [7] was 97.4% and the FXa assay % of FXa alone, 20 nM Ab, 10 nM TFPI [7] was 93.6%. It also gave an FXa assay OD, 2.5 nM Ab, 10 nM TFPI [7] of 0.065, an FXa assay OD, 5 nM Ab, 10 nM TFPI [7] of 0.441 and an FXa assay OD, 10 nM Ab, 10 nM TFPI [7] of 0.701. The FXa assay OD, 20 nM Ab, 10 nM TFPI [7] was 0.673, the FXa assay % of FXa alone, 2.5 nM Ab, 10 nM TFPI [8] was 8.7% and the FXa assay % of FXa alone, 5 nM Ab, 10 nM TFPI [8] was 33.6%. The FXa assay % of FXa alone, 10 nM Ab, 10 nM TFPI [8] was 92.4%, the FXa assay % of FXa alone, 20 nM Ab, 10 nM TFPI [8] was 91.4% and the FXa assay OD, 2.5 nM Ab, 10 nM TFPI [8] was 0.071. The FXa assay OD, 5 nM Ab, 10 nM TFPI [8] was 0.273, the FXa assay OD, 10 nM Ab, 10 nM TFPI [8] was 0.75 and the FXa assay OD, 20 nM Ab, 10 nM TFPI [8] was 0.742. It also gave a % of Normalized, TF/FVIIa/FX complex assay, Ab 1.56 nM [9] of 5.2%, a % of Normalized, TF/FVIIa/FX complex assay, Ab 3.13 nM [9] of 5.4% and a % of Normalized, TF/FVIIa/FX complex assay, Ab 6.25 nM [9] of 7.3%. For the same binder, the % of Normalized, TF/FVIIa/FX complex assay, Ab 12.5 nM [9] was 12.4%, the % of Normalized, TF/FVIIa/FX complex assay, Ab 25 nM [9] was 54.4% and the % of Normalized, TF/FVIIa/FX complex assay, Ab 50 nM [9] was 86.1%. It also gave a % of Normalized, TF/FVIIa/FX complex assay, Ab 100 nM [9] of 100%, a % of Normalized, TF/FVIIa/FX complex assay, Ab 1.56 nM [10] of 15.8% and a % of Normalized, TF/FVIIa/FX complex assay, Ab 3.13 nM [10] of 17.9%. For the same binder, the % of Normalized, TF/FVIIa/FX complex assay, Ab 6.25 nM [10] was 18.8%, the % of Normalized, TF/FVIIa/FX complex assay, Ab 12.5 nM [10] was 24.4% and the % of Normalized, TF/FVIIa/FX complex assay, Ab 25 nM [10] was 100%. It also gave a % of Normalized, TF/FVIIa/FX complex assay, Ab 50 nM [10] of 99.6% and a % of Normalized, TF/FVIIa/FX complex assay, Ab 100 nM [10] of 101%.
